Patent US20040087537A1

Legend:
[1] = target: low affinity human Nerve Growth Factor receptor truncated in its intracytoplasmic domain (delta-LNGFR), product of the HN vector (human); experiment: FACS on CEMss HN cells, control labeling
[2] = target: delta-LNGFR/F12Nef fusion protein, product of the NF vector (human LNGFR (NH2 moiety) fused to HIV-1 F12Nef (COOH moiety)); experiment: FACS on CEMss NF cells, control labeling

Sequence of low affinity human Nerve Growth Factor receptor truncated in its intracytoplasmic domain (delta-LNGFR), product of the HN vector (human) (chain, as listed by the source mutant limits assumed): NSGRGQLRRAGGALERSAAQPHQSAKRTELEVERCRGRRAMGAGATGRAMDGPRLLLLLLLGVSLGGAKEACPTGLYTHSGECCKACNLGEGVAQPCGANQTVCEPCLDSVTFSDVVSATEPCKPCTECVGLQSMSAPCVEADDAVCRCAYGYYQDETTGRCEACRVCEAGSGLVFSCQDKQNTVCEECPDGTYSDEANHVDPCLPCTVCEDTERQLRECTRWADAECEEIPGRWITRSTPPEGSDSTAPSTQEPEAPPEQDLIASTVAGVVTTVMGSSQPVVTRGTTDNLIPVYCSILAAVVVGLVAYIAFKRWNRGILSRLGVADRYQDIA

## species and isotype matched IgG (antibody)
[1]
  MFI: 1 to 1.5
[2]
  MFI: 1 to 1.5
